Data taken from the DeepSol protein solubility set.

Experiment: soluble on expression in E. coli; label from the status in PepcDB or PDB records
For “MAHHHHHHMSVSSPLASSGEREQYGPQEQRQYGFVPVQMTNLVPVRVVSVHGDFFDMEIHQDAPLHIVQRAAEDCFKVRPELQLLTHNRKPINPNQSLRRNGCLLLKGDPFVKIVLDVKKGSRLNIVCQMAHCEPIPLACEAEDTIWDVKKKFCSSLEKSEVTPQRIRLLWRYWELNDKATVDYYHIPTNSKLTVMKKRDILGGQQTERRRAPSQRRRQDVQRRHERCDADTDDVAAWPKAPSVVPPYEKYRQASGREPLEGEDNRSKTPNANGSAQVVEGGADRDSHHPPIRAWPALPQEQFGRAVIPLYPIVPPLSGGSYYREPRAQTPDRRPAVVPVAEATQVVDFTEVQRLRMEVEELGRRMETCVTDRAEFSAMEESFRAAVTRVSELEASVGRVQNLLKRALHLM”, the “soluble on expression in E. coli” value was “not soluble”. In the case of “MAHHHHHHMSVTIKLSNGSQKTVEVPDLNITVAKFKEIASAVTNIPADEQRVVLRGRVLKDGDVLSAMGMEHGQAVHIVRGQKSTKSDVASPSAQESASTQETQTNTNPQARPETVNPYAALAANLPASGGFSNNIPGNPNPGLQMPPELLSNMLQNPAFMQYFQEMMRNPQFLQQRMQQPQQQSQSQSPFGMNEGEMQRLLNNPMFMQLVLQMMSDPSIMQQLTQSLGGGFPASNTPLFGQQNAPAPNFAQNTGFFQPQGDPRVLYQSQLQQLREMGFTNEQANLAALEQAHGNIDFAIERLLNA”, the “soluble on expression in E. coli” value is reported as “soluble”. For “MAHHHHHHMSWRARFTPCVGSLTVWLNPKDPNCFGVRNWWRNNLPELQLLNPFCTFTIQELSFGEPHMYVNYTPTDQRMIRLAGATEEECEEIMEACITYGMNHAIIERPRTDDGGDLVNQPAITSFGYTESFTAKLEVAPPADIGQKTTEGVDDPGQKPRLYPRNVGCKLMP”, the “soluble on expression in E. coli” value was “not soluble”. In the case of “MAHHHHHHMTAAADFALPDLVLFLRLYDSANVEDGQLLVQVMNEIHRQLFALAETAADAAVARGGSSTPSMAGTTIGEHDLDAANRGVKGISPAPSASPLPLPAMLYTMSSLGIVEEAVLDVVTSSAVQDGARGRRGLLYSQLRLYSVADLLQLLVALHRFGHQQQPSTKAVTMALRASLYRTSTTASRFHRRARSLKRALAARPQTPSSGEGRADAAAADADTGGVAAVIAADEELSSLAFGLGCPLFLLLEALTATATTVHRRTDVVAFLSDLIAVTAVAELTTAVHESRGRRSPAGCEDLAREAQEFVFAVSHQLLRAAKLTECMELPQILLSDVFAWSTTLSGRGVFVDGGEDNAVPSDRVAYYDHVTADLIKANSAE”, the “soluble on expression in E. coli” value is reported as “not soluble”. In the case of “MAHHHHHHMTALERYAFKVDYCDPQANLVRQYLLLYFAEDSTIEMHDLKTKRVFLKRCAYPSLTPRELFIGATVGVFSRSLKLVDYGDEVTRRHFSGSEAEFVVFIQEGGLCHMGSIIDRMHTWELRITNIRLVDLPDSLCRDLGVSRRCVAILFKGSNAIEKVGGLSTEFPNMTVVVAEPSDVNSVRGAAFGPGGTTAVMKNCSVCVIKPHAIMSGYQGAIIQRLIDEGFHITALGMYSLTVADAEDFLEVYNGVVPEYQRLVEQMSSGPCWAVQVCAENSVSALRAICGPHDPDVCHVLFPHTIRSKYGVDRTRNGVHCTDLEEDAPLESEFFFSLLQNA”, the “soluble on expression in E. coli” value is reported as “not soluble”. In the case of “MAHHHHHHMTDVVEAPRPATVAEAFANTAKALEQFNIERIRVEGLSCKSSITHCRKHDKNNMEKEEDVRTLTEQAFMREFVFQSRPCVIVGALEDWPAMQRWRDDRYLFDLDGHLSRVRRETDDAAAPSSEGTAATGDVAVVPKNNDHDSSDDNTHPREREEEKDGLKRVTVALTPNGRADAVTYVTYQGAREEGRENDVDGKKDNVEEHFIKTEKLFMAAAEIRATLPELYHLLRENPLYPPVRPVFVDLRRPAPVVAYAQMQNNCLEVEYQHLHGDIPPELDRFGERVFGEPHEAANVWFGTPASVSSMHQDWVENLYAVVRGVKEFILLPPWEGVFVPKPELPSAAFSVQRQDGVNGYVFSGTPVHDGLTIPWMDVEFTPAALEDVSLMPTNMQERLHPLVVYVQPGEVLYLPAMWLHRVAQHADDTDRLAREKQLTSSLQSAQDPPLPLIAAVNYWYDMSFTNPAVVMLREFGLLL”, the “soluble on expression in E. coli” value is reported as “soluble”. With “MAHHHHHHMTLKEAIDRDGVPATSSSKQRRLMDIHVTAYPGLVNQHMLPKHNTAVNDFSSIDPLQYRKAHTVRNNNAASYSEKEENVLDMLTTNQCTNRMTRLGMQLREERAKNPKGMPSISSLAPRGYRSRFLSPSFDERSTYRWDYCQWEPDGFHDTVRRELLAAYRDDWTEDEKADVDISMKIPYLTMAVSSDRLKDKATIYRKDFMEDATQADYRSLSYKTNLEDLGTSYAYSAYSIDDPRRKVLFDASVAALKTPHSVLEKTYSPRNSFLEKSLSTKQQSSAREELDRLRTMRREALHLSAAKRSAAESTDDGTTTKTVVIPGIKGSGYRRVPKGNDSYVCLSRDHFCYQQVDNF” the “soluble on expression in E. coli” value was “not soluble”.
